Among the data in article PMC7102599 (Cell, 2020) are Kd, koff and kon values, retold here.

Broadly, the Kd is the constant that tells how readily two partners part at equilibrium. As a reminder, the koff is a measure of how fast the partners let go of each other. Low values mean slow dissociation, high ones fast dissociation. A word on the kon: it is the rate constant with which the complex forms.

Where “and” joins values, the source holds several entries; their conditions need not be identical. Identical values can stand only once.

This assay deals with human angiotensin-converting enzyme 2 ectodomain (ACE2, residues 1-614) (human, UniProt Q9BYF1 18-614). Put plainly: BLI. On the technique in general: BLI is a label-free optical method that tracks binding on a fibre tip over time.
Chain of human angiotensin-converting enzyme 2 ectodomain (ACE2, residues 1-614) (Q9BYF1 18-614): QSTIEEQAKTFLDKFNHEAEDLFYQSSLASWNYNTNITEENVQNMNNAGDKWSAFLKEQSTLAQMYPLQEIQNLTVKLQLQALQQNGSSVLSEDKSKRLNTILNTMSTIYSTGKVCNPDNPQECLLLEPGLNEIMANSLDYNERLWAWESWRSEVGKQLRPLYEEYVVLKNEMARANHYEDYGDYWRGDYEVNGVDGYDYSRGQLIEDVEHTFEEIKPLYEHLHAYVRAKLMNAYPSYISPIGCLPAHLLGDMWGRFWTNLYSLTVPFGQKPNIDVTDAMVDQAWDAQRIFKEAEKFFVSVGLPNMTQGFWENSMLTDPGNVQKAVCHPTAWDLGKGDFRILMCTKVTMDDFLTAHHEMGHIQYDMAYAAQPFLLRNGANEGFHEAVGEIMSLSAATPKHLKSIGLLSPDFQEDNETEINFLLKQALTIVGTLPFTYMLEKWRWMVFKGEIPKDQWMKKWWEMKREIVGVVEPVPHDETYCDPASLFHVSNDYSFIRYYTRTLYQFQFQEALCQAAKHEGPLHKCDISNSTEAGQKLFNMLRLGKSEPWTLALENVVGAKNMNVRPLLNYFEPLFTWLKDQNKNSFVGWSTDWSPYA

B1: SARS-CoV S domain B (S^B), residues 306-575 (domain or fragment)
chain: not shown
Take B1: the affinity, expressed as Kd, was 5 ± 0.1 nM; the koff was 0.00087 s⁻¹ and 0.00071 s⁻¹; the kon was determined as 170000 M⁻¹ s⁻¹.
